Experimental data published in the supplement of paper PMC9170038.

System: MS2 coat protein
Assay: apparent KD of MS2 coat protein; designed switch direction (-1 OFF switch, 1 ON switch): -1; higher = weaker reporter binding
Method in brief: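 Stalled E. coli RNA polymerase transcribed designed RNA switches on Illumina chips, which were then titrated with SNAP-549-labelled MS2 coat protein, doubling from 0.7 or 1.5 nM to 3 µM. Steps lasted from 0.8–1.5 h at the lowest concentration to 10–20 min at the highest. The apparent KD is each design's median over clusters of curve-fitted normalised fluorescence.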

[1] = Eterna round: R95, input ligand: FMN 200 uM
[2] = Eterna round: R95, input ligand: microRNA oligo, concentration not stated
[3] = Eterna round: R95, input ligand: none
[4] = input ligand: microRNA oligo, concentration not stated

Sequence	apparent KD of MS2 coat protein [1]	apparent KD of MS2 coat protein [2]	apparent KD of MS2 coat protein [3]	apparent KD of MS2 coat protein [4]	apparent KD of MS2 coat protein (input ligand: FMN 200 uM)	apparent KD of MS2 coat protein (input ligand: none)
UGAGAACAUGAGGAUCACCCAUGUAAGGAUAUGCGAAGAGUUCGGAGAGGUUGAGGAGGCAGAAGGUACAGGAG [JR_Exclu1_Sub043] (puzzle: Exclusion 1)	46.8 nM	35.8 nM	58.7 nM	–	–	–
UGAGAACAUGAGGAUCACCCAUGUAAGGAUAUGCGAAGAGUUCGGAGAGGUUGAGGAGGCAGAAGGUACGGGAG [JR_Exclu1_Sub044] (puzzle: Exclusion 1)	37.5 nM	32.5 nM	49.8 nM	–	–	–
UGAGAGUCAGGAUAUCGAAGGUAGUGGAGAGGAGUGUGGUACGAGAAGGGACAUGAGGAUCACCCAUGUAGGUG [JR_Exclusion4)Sub009] (puzzle: Exclusion 4)	–	420 nM	–	–	–	–
UGAGUGCUGCGAGGAUAUACAUGAGGAUCACCCAUGUAAAUGUGUGAGGCUUUGCCUCACACAAUGUAGAAGGCGCAGUACUCU [JL ENG2 1.01] (Eterna round: R96, puzzle: Exclusion NG 2)	–	–	–	9.17 nM	–	–
UGAGUGCUGCGAGGAUAUACAUGAGGAUCACCCAUGUAAUAGUGUGAGGCUUUGCCUCACACAAUGUAGAAGGCGCAGUACUCU [JL ENG2 1.02] (Eterna round: R96, puzzle: Exclusion NG 2)	–	–	–	8.58 nM	17.1 nM	12.5 nM
UGAGUGCUGCGAGGAUAUACAUGAGGAUCACCCAUGUAAUCGUGUGAGGCUUUGCCUCACACGAUGUAGAAGGCGCAGUACUCU [JL ENG2 1.09] (Eterna round: R96, puzzle: Exclusion NG 2)	–	–	–	8.97 nM	9.84 nM	11.9 nM
UGAGUGCUGCGAGGAUAUACAUGAGGAUCACCCAUGUAUUAGUGUGAGGCUUUGCCUCACACAAUGUAGAAGGCGCAGUACUCU [JL ENG2 1.03] (Eterna round: R96, puzzle: Exclusion NG 2)	–	–	–	10.3 nM	5.74 nM	13.1 nM
UGAGUGGUGCGAGGAUAUACAUGAGGAUCACCCAUGUAAACGUGUGAGGCAAAGCCUCACACGAUGUAGAAGGCGCACUACUCU [Mat - Exclusion NG 2 - Mod of JL - D14] (Eterna round: R96, puzzle: Exclusion NG 2)	–	–	–	12.4 nM	24.7 nM	19.5 nM
UGAUCAAAUGUCAGGAUAUGCUAUUAGAAAUAAUAGCAGAAGGGACAUGAGGAUCACCCAUGUCUUGUCGAUUU [Magic-01] (puzzle: Brourd's mod of Exclusion 4)	93.5 nM	19.2 nM	20.1 nM	–	–	–
UGAUCAGACCGAGGAUAUACAUGUAGGACCCACGUGAGUGGGUCCAGUACAUGAGGAUCACCCAUGUAGAAGGCGGUCUGAUCU [JL ENG2 1.89] (Eterna round: R96, puzzle: Exclusion NG 2)	–	–	–	70.6 nM	241 nM	94.6 nM
UGAUCAGACCGAGGAUAUACAUGUAGGACGCACGUGAGUGCGUCCAAUACAUGAGGAUCACCCAUGUAGAAGGCGGUCUGAUCU [JL ENG2 1.94] (Eterna round: R96, puzzle: Exclusion NG 2)	–	–	–	76.4 nM	181 nM	86.7 nM
UGAUCAGACCGAGGAUAUAUAUGUAGGACGCACGUGAGUGCGUCCAAUACAUGAGGAUCACCCAUGUAGAAGGCGGUCUGAUCU [JL ENG2 1.97] (Eterna round: R96, puzzle: Exclusion NG 2)	–	–	–	9.9 nM	18.5 nM	14.2 nM
UGAUCCAAAGAGGAUAUGUCGGGCCAGGGCCCAACAGAAGGCUUUACAUGAGGAUCACCCAUGUUCGCGACAUG [EX6 A.22] (Eterna round: R97, puzzle: Exclusion 6)	–	–	–	–	481 nM	558 nM
UGAUCCGGUGUGAGGAUAUUUAACCUCAUAUAGGUAAAGAAGGCACAUGAGGAUCACCCAUGUCGAGGCCCGAU [Eternabot (L2) Solution 74] (Eterna round: R97, puzzle: Brourd's mod of Exclusion 4)	–	–	–	–	209 nM	168 nM
UGAUCUAGCGGAGGAUAUACAUGAGGAUCACCCAUGUAAUGGUGACGUGCGUACAUGUCACCUGUGUAGAAGGCCGCUAGAUCU [JL ENG2 3.57] (Eterna round: R96, puzzle: Exclusion NG 2)	–	–	–	15.6 nM	11.3 nM	16 nM
UGAUCUAGCGGAGGAUAUACAUGAGGAUCACCCAUGUAGACUCCAUGACCGUAGUCGUGGAGCGUGUAGAAGGCCGCUAGAUCU [JL ENG2 3.72] (Eterna round: R96, puzzle: Exclusion NG 2)	–	–	–	10.3 nM	19.2 nM	12.2 nM
UGAUCUAGCGGAGGAUAUACAUGAGGAUCACCCAUGUAGACUCCAUGACCGUAGUCGUGGAGUGUGUAGAAGGCCGCUAGAUCU [JL ENG2 3.73] (Eterna round: R96, puzzle: Exclusion NG 2)	–	–	–	9.33 nM	15.2 nM	12 nM
UGAUCUAGCGGAGGAUAUACAUGAGGAUCACCCAUGUAUAGGCUAUGACCGUAGUCGUGGCACAUGUAGAAGGCCGCUAGAUCU [JL ENG2 3.78] (Eterna round: R96, puzzle: Exclusion NG 2)	–	–	–	12.8 nM	43.7 nM	15.2 nM

Sequence	apparent KD of MS2 coat protein [1]	apparent KD of MS2 coat protein [2]	apparent KD of MS2 coat protein [3]	apparent KD of MS2 coat protein [4]	apparent KD of MS2 coat protein (input ligand: FMN 200 uM)	apparent KD of MS2 coat protein (input ligand: none)
UGAUCUAGCGGAGGAUAUACAUGAGGAUCACCCAUGUAUAGUCUAUGACCGUAGUCGUGGACCGUGUAGAAGGCCGCUAGAUCU [JL ENG2 3.77] (Eterna round: R96, puzzle: Exclusion NG 2)	–	–	–	11.4 nM	16.5 nM	11 nM
UGAUCUUGAGUCAGGAUAUGCUGGUUUUUUUUUUAGCAGAAGGGACAUGAGGAUCACCCAUGUUCUCACUUUUU [Magic-12] (puzzle: Brourd's mod of Exclusion 4)	–	16.8 nM	–	–	–	–
UGAUGCUCAGGAUAUACAUCAGUGUUCAGGCCAAAAGGCGGACAUGAGGAUCACCCAUGUAGAAGGGAGCGUUC [Eternabot (L1) Solution 13] (Eterna round: R97, puzzle: Exclusion 2)	–	–	–	–	900 nM	380 nM
UGAUGUUGAUAGGAUAUACAGGUAGGAGUAGGAGUAGAAGGAUCUACAUGAGGAUCACCCAUGUAGGAGUGAGA [JR_E6_Sub001] (puzzle: Exclusion 6)	21.7 nM	12.5 nM	16.4 nM	–	–	–
UGAUUGUUUACCAGGUUAUACAUGAGGAUCACCCAUGUAGAUCCUACGUGCACGUUAUACCGCUCGUCUUAUUCCCA [Sensor-V1 #76] (Eterna round: R97, puzzle: Sensor, turn-off variant 1)	–	–	–	–	21.4 nM	20.7 nM
UGCAGACGAGGAUAUAAACGAUAUAACAUGAGGAUCACCCAUGUACGAUCGAUAGAUCGUUUAGAAGGCGUCUGCA [E5/9-A2] (Eterna round: R97, puzzle: Exclusion 5)	–	–	–	–	12.8 nM	14.5 nM
UGCAGACGAGGAUAUAAACGAUAUAACAUGAGGAUCACCCAUGUACGAUCGAUAGAUCGUUUAGAAGGCGUCUGCU [E5/9-A3] (Eterna round: R97, puzzle: Exclusion 5)	–	–	–	–	14.5 nM	14.1 nM
UGCAGACGAGGAUAUAAAUUUGAUAACAUGAGGAUCACCCAUGUGAUCGAUAGAUCAAAUUUAGAAGGUGUCUGCA [E5/7-B2] (Eterna round: R97, puzzle: Exclusion 5)	–	–	–	–	443 nM	576 nM
UGCAGACGAGGAUAUAGAUUUAAGUACAUGAGGAUCACCCAUGUACAUAUGUAUUUAGAUUUAGAAGGCGUCUGCA [E5/16-A2] (Eterna round: R97, puzzle: Exclusion 5)	–	–	–	–	28.2 nM	27.7 nM
UGCAGACGAGGAUAUAGAUUUAGAUACAUGAGGAUCACCCAUGUAUAGAUGUAUUUAGAUUUAGAAGGCGUCUGCA [E5/13-A1] (Eterna round: R97, puzzle: Exclusion 5)	–	–	–	–	401 nM	305 nM
UGCAGACGAGGAUAUAGAUUUGAUAACAUGAGGAUCACCCAUGUGAUCGAUAGAUCAGAUUUAGAAGGCGUCUGCU [E5/8-A4] (Eterna round: R97, puzzle: Exclusion 5)	–	–	–	–	586 nM	715 nM
UGCAUCUGAGGAUAUCACAUGUGGAACAUGAGGAUCACCCAUGUGAUCCACAUGCCGUUGUGAGAAGGCAGUAAAA [Isteon] (puzzle: Exclusion 5)	–	268 nM	–	–	–	–
UGCAUGCUAGGAUAUACGAAACAUUAGGGUUCUUUGUGUGAACAUGAGGAUCACCCAUGUAGAAGGAGCGUGCU [Mod8 of JL-ex2-2.15 mat747 mod] (puzzle: Exclusion 2)	–	127 nM	–	–	–	–
UGCAUGCUAGGAUAUACGGGACAUUAGGGUUCGUUGUGUGGACAUGAGGAUCACCCAUGUAGAAGGAGCGUGCU [Mod of JL-ex2-2.15 mat747 mod] (puzzle: Exclusion 2)	–	69.3 nM	–	–	–	–
UGCAUGCUAGGAUAUACGGGACAUUAGGGUUUGUCGUGUGGACAUGAGGAUCACCCAUGUAGAAGGAGCGUGCU [Mod2 of JL-ex2-2.15 mat747 mod] (puzzle: Exclusion 2)	–	43.6 nM	–	–	–	–
UGCAUGCUAGGAUAUGCCGAGGAGAACAUGAGGAUCACCCAUGUGACCCGGAUGCCUUGAGCAGAAGGAGCUACUA [EX5 C.19] (Eterna round: R97, puzzle: Exclusion 5)	–	–	–	–	22.4 nM	15.2 nM
UGCAUGUGAGGAUAUGUGUACUGUCUUUUGUUUAGAUGUACACAGAAGGCACAUGAGGAUCACCCAUGUAGUAC [Ex4 - 3 - 34] (puzzle: Exclusion 4)	–	59.1 nM	–	–	–	–
